{"source": "paper PMC3967050", "about": "(Genes & Development, 2014)", "key": {"[1]": {"biological_target": "Human Spindlin1 50–262 (SPIN1_(50–262)) (human) (UniProt Q9Y657)", "sequence (Q9Y657 50-262)": "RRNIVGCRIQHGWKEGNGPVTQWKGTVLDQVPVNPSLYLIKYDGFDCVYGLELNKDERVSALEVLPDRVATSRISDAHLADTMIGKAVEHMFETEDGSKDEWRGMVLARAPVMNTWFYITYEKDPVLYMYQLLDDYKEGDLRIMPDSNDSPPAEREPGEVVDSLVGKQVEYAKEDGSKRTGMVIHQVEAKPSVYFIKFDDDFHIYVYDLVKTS", "assay": "ITC"}, "[2]": {"biological_target": "bulky arginine mutations of residues W72, Y98, and F251", "assay": "ITC"}, "SPIN1_50–262": {"biological_target": "SPIN1_50–262 (Homo sapiens, UniProt Q9Y657)", "sequence (Q9Y657 50-262)": "as above", "assay": "ITC of SPIN1_50–262 with synthetic peptides", "format": "binding", "details": "relative to H3 K4me3–R8me2a"}, "[3]": {"biological_target": "T1, Human Spindlin1 50–262 (SPIN1_(50–262)) (human, UniProt Q9Y657 50-262)", "T1 sequence (Q9Y657 50-262)": "as above", "assay": "ITC"}, "[4]": {"biological_target": "T1, Human Spindlin1 50–262 (SPIN1_(50–262))", "assay": "thermo-fluor stability assay"}, "SPIN1_(50–262) E142A": {"biological_target": "SPIN1_(50–262) E142A (human, UniProt Q9Y657 50-262, E142A)", "sequence (Q9Y657 50-262 E142A)": "as the sequence (Q9Y657 50-262) above, with E93A counted along it", "assay": "ITC"}, "SPIN1_(50–262) D184A": {"biological_target": "SPIN1_(50–262) D184A (human, UniProt Q9Y657 50-262, D184A)", "sequence (Q9Y657 50-262 D184A)": "as the sequence (Q9Y657 50-262) above, with D135A counted along it", "assay": "ITC"}}, "note": "Square brackets hold non-standard residues; d marks the D form. Ends that are not written are not given here. Arg(Me2a) = CN(C)C(=N)NCCC[C@H](N)C(=O)O; Lys(Me3) = C[N+](C)(C)CCCC[C@H](N)C(=O)O; Arg(Me2s) = CN=C(NC)NCCC[C@H](N)C(=O)O; Arg(Me) = CNC(=N)NCCC[C@H](N)C(=O)O"}
{"molecule": "H3 K4me2–R8me2a peptide", "values": [{"measurement": "Kd", "setting": "[1]", "result": 510, "unit": "nM"}]}
{"molecule": "H3_(1–10)K4me3R8me2a peptide (from UniProt P68431 2-11)", "values": [{"measurement": "fold drop of affinity against wild-type SPIN1(50–262)", "setting": "[2]", "result": "10 to 40", "unit": "fold"}]}
{"molecule": "C[C@H](N)C(=O)N[C@@H](CCCNC(=N)N)C(=O)N[C@H](C(=O)N[C@@H](CCCCN(C)C)C(=O)N[C@@H](CCC(N)=O)C(=O)N[C@H](C(=O)N[C@@H](C)C(=O)N[C@@H](CCCNC(=N)N(C)C)C(=O)N[C@@H](CCCCN)C(=O)N[C@@H](CO)C(=O)O)[C@@H](C)O)[C@@H](C)O", "note": "[K4me2–R8me2a]", "values": [{"measurement": "affinity reduction upon loss of one methyl group", "setting": "SPIN1_50–262", "result": "~10", "unit": "fold"}]}
{"molecule": "RRKKKCVRYIQG", "note": "[TCF4_(458–469) peptide]", "values": [{"measurement": "Kd", "setting": "[3]", "result": 3900, "unit": "nM"}]}
{"molecule": "ART[Lys(Me3)]QTA[Arg(Me)]KS", "note": "[H3_(1–10)K4me3R8me1 peptide]", "values": [{"measurement": "Kd", "setting": "[3]", "result": "~139", "unit": "nM"}]}
{"molecule": "ART[Lys(Me3)]QTARKS", "note": "[H3_(1–10)K4me3 peptide]", "values": [{"measurement": "Kd", "setting": "[3]", "result": "~147", "unit": "nM"}, {"measurement": "reduction of Tm against H3(1–10)K4me3R8me2a", "setting": "[4]", "result": 4, "unit": "°C"}]}
{"molecule": "ART[Lys(Me3)]QTA[Arg(Me2s)]KS", "note": "[H3_(1–10)K4me3R8me2s peptide]", "values": [{"measurement": "reduction of Tm against H3(1–10)K4me3R8me2a", "setting": "[4]", "result": 2, "unit": "°C"}]}
{"molecule": "ART[Lys(Me3)]QTA[Arg(Me2a)]KS (peptide, UniProt P68431 2-11, looked up)", "note": "[H3_(1–10)K4me3R8me2a peptide]", "values": [{"measurement": "fold reduction of binding affinity against wild-type SPIN1(50–262)", "setting": "SPIN1_(50–262) E142A", "result": "~3", "unit": "fold"}, {"measurement": "fold reduction of binding affinity against wild-type SPIN1(50–262)", "setting": "SPIN1_(50–262) D184A", "result": "~90", "unit": "fold"}, {"measurement": "Tm of SPIN1(50–262) with the peptide", "setting": "[4]", "result": 63.5, "unit": "°C"}]}
